Experiment [1] concerns the target T1, hemagglutinin (HA) of influenza A/Japan/305/57 (H2N2) on whole virions (Influenza A virus A/Japan/305/1957(H2N2), UniProt P03451 16-562). Nature of the experiment: ELISA, purified IgG on inactivated whole virions. For orientation: In an ELISA, binding on a coated surface is turned into a signal by an enzyme label.
Experiment [2] addresses T1, hemagglutinin (HA) of influenza …. The experiment is described as follows: ELISA; BCC supernatant on coated inactivated whole virions.

B1: TCN-532 (5262_H18) (antibody, V domains shown)
VH: QVQLQESGPGLVKPSETLSLTCTVSGGSVSSETYYWSWIRQPPGKGLEWIGYIYYIGNTDYRPSLKSRVTISLDTSKNQFSLKLSSVTAADTAVYYCARGAYYDSSGYPAFYIWGQGTMVTVSS
VL: QSVLTQPPSVSGAPGQRVTISCTGSSSNIGSDYDVHWYKQLPGTAPKLLIFGNSNRPSGVPDRFSGSKSGTSASLAITGLQAEDEADYYCQSYDSSLSGFHVFGSGTKVTVL
Regarding B1, the binding result in experiment [1] is listed as “no binding”. For the same molecule, the “ELISA virus binding (OD450)” value in experiment [2] amounted to 0.07 OD450.

The record behind these values is patent publication US20150086555A1 (THERACLONE SCIENCES, published 2015).
